Data as given in patent publication WO2009024653A1 (dated 2009).

Assays:
[1] = target: T1, RHD5, human monoclonal IgG1 antibody directed against the C1 domain of factor VIII (LMBP 6165CB); assay: competition ELISA, coated recFVIII, RHD5 at 2 ug/ml pre-incubated with 18B6
T1 construct: Human IgG1; also called anticorps RHD5; anti-C1 antibody

[2] = target: T1, RHD5, human monoclonal IgG1 antibody …; assay: SPR (Biacore), RHD5 immobilised on a CM5 chip, 18B6 injected
[3] = target: T1, RHD5, human monoclonal IgG1 antibody …; assay: cell-based or functional assay

T1 sequence (VH, as listed by the source, chain 1 of 2): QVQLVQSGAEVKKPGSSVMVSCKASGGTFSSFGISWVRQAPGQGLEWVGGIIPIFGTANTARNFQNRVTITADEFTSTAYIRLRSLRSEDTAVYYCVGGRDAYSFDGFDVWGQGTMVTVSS
T1 sequence (VL, as listed by the source, chain 2 of 2): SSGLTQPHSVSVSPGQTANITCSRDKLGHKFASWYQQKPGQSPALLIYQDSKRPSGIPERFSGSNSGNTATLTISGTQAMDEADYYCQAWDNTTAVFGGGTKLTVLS

B1: anti-idiotypic monoclonal antibody 18B6 (produced by hybridoma 18B6, CNCM I-3559) (antibody, mouse IgG1, V domains shown)
VH: QVQLQQSGAELAKPGASVKMSCKASGYTFTTYWMHWIKQRPGQDLEWIGYINPTSGYTEYNQNFKDKATLTADKSSSTAYMQLNSLTSEDSAVYFCARSGAYYRYDDAMDSWGQGTSVTVSS
VL: QIVLSQSPAILSASPGEKVTMTCRASSSVSYMNWYQQKPGSSPKPWIYATSNLASGVPARFSGSGSGTSYSLTISRVEAEDAATYYCQQWSSNPPMLTFGAGTKLELK
notes: also called anticorps anti-idiotypique 18B6; clone 18B6 anti-RHD5
RHD5/18B6 molar ratio at 50% inhibition of RHD5 binding to FVIII [1]: 2.5 molar ratio RHD5/18B6 | percent inhibition of RHD5 binding to FVIII at an equimolar ratio [1]: 92% | koff [2]: 1.45e-05 s⁻¹ | kon [2]: 4260 M⁻¹ s⁻¹ | neutralisation of the inhibitory (anti-FVIII) activity of RHD5, chromogenic factor VIII test (DADE), RHD5 0.4 ug/ml, FVIII Kogenate 0.5 U/ml [3]: 50 % neutralisation at an equimolar RHD5/18B6 ratio
